This note sets out measurements from PMC11667166.

Read-outs that look alike come from different tables or passages of the source.

Consider CD320: N126Q/N195Q/N213Q (QQQ), for which the localisation_or_trafficking result runs as follows: (N-glycosylation at N126) “no change”; (N-glycosylation at N195) “no change”; (N-glycosylation at N213) “no change”.
For CD320: N126Q, where the note is “N-glycosylation at N126”, the localisation_or_trafficking result is reported as “no change”.
CD320: N195Q: the localisation_or_trafficking entry (N-glycosylation at N195) is on record as “no change”.
With CD320: N213Q, under “N-glycosylation at N213”, the localisation_or_trafficking entry is given as “no change”.
